Our source for the Kd values is article PMC11197336.

In experiment [1] the target is SepM_D221N (Streptococcus mutans). The experiment can be described thus: MST; SepM (50 nM) labelled on its His-tag with RED-tris-NTA; CSP-21 in a 16-point serial dilution from 100 µM; PBS pH 5.5; 25 °C; Monolith NT.115, triplicate.
In experiment [2] the target is SepM_G178D (Streptococcus mutans). Described as above.
Experiment [3] addresses SepM_control (Streptococcus mutans). The experiment is described as above.
Experiment [4] concerns the target SepM_D221N (Streptococcus mutans). As to the kind of experiment: MST; SepM (50 nM) labelled on its His-tag with RED-tris-NTA; CSP-21 in a 16-point serial dilution from 100 µM; PBS pH 5.5; 37 °C; Monolith NT.115, triplicate.
The target of experiment [5] is SepM_G178D (Streptococcus mutans). The description is as above.
Experiment [6] addresses SepM_control (Streptococcus mutans). The experiment is described as above.
The target in experiment [7] is SepM_D221N (Streptococcus mutans). As to the kind of experiment: MST; SepM (50 nM) labelled on its His-tag with RED-tris-NTA; CSP-21 in a 16-point serial dilution from 100 µM; PBS pH 7.5; 25 °C; Monolith NT.115, triplicate.
In experiment [8] the target is SepM_G178D (Streptococcus mutans). Described as above.
The target in experiment [9] is SepM_control (Streptococcus mutans). Described as above.
Experiment [10] deals with SepM_D221N (Streptococcus mutans). The experiment can be described thus: MST; SepM (50 nM) labelled on its His-tag with RED-tris-NTA; CSP-21 in a 16-point serial dilution from 100 µM; PBS pH 7.5; 37 °C; Monolith NT.115, triplicate.
In experiment [11] the target is SepM_G178D (Streptococcus mutans). Described as above.
The target of experiment [12] is SepM_control (Streptococcus mutans). Described as above.

Turning to CSP-21 (peptide), the Kd in experiment [1] amounted to 8.25 µM; in [2] it was 44.2 µM; in [3] it was 33.1 µM; in experiment [4], 7.52 µM; in experiment [5], 21.4 µM; in experiment [6], 12.8 µM. Also, the Kd was determined as 20.8 µM in experiment [7]; 3.02 µM in experiment [8]; 15.9 µM in experiment [9]; 28.7 µM in experiment [10]; 85 µM in experiment [11]; 29.3 µM in experiment [12].
